These results are taken from patent publication US20250270339A1 (Alector, published 2025).

Test [1] concerns the target T1, Full length Mouse TfR on CHO cells (mouse, UniProt Q62351 1-763).
T1 construct: also called CHO + muTfR
Briefly: FACS, CHO+muTfR. As for the experimental part: (§1) A total of 1536 anti-TfR hybridoma supernatants were initially screened for their ability to differentially bind CHO cells overexpressing human or mouse TfR cells compared to CHO parental cells by FACS. Overexpressing cells were harvested, washed and labeled with Pacific Blue, FITC and Pacific Orange dyes (ThermoFisher) to create uniquely barcoded cell populations. Barcoded cells (5×10⁴ of each cell population) were aliquoted into 96-well U-bottom plates and incubated with 50 μl of hybridoma cell culture supernatant or […] of commercially available purified mouse anti-human TfR monoclonal antibody (Sigma Aldrich, Cat #SAB4700515) and rat anti-mouse TfR antibody (Invitrogen, Waltham, MA, Cat #R17217) on ice for 30 minutes. After this primary incubation, the supernatants were removed via centrifugation, the cells were washed twice with 175 μl of ice-cold FACS buffer (PBS+1% FBS+2 mM EDTA), and the cells were then further incubated on ice for 20 minutes with anti-mouse IgG Fc-allophycocyanin (APC) or anti-rat IgG Fc-APC (Jackson Labs, Cat #115-136-071 and Cat #112-136-071, respectively) (diluted 1:1000). Following this secondary antibody incubation, the cells were again washed twice with ice-cold FACS buffer and resuspended in a final volume of 50 μl of FACS buffer. Binding intensity on cells was analyzed using the FACS Canto system (BD Biosciences), and the ratio of APC Mean Fluorescence Intensity (MFI) on each barcoded cell population was determined for each anti-TfR hybridoma supernatant tested.
In general terms: A flow cytometer gives signals particle by particle.

Test [2] deals with T2, Full length human TfR on CHO cells (human, UniProt P02786 1-760).
T2 construct: also called CHO + huTfR; CHO + hTfR
T2 sequence (P02786 whole entry): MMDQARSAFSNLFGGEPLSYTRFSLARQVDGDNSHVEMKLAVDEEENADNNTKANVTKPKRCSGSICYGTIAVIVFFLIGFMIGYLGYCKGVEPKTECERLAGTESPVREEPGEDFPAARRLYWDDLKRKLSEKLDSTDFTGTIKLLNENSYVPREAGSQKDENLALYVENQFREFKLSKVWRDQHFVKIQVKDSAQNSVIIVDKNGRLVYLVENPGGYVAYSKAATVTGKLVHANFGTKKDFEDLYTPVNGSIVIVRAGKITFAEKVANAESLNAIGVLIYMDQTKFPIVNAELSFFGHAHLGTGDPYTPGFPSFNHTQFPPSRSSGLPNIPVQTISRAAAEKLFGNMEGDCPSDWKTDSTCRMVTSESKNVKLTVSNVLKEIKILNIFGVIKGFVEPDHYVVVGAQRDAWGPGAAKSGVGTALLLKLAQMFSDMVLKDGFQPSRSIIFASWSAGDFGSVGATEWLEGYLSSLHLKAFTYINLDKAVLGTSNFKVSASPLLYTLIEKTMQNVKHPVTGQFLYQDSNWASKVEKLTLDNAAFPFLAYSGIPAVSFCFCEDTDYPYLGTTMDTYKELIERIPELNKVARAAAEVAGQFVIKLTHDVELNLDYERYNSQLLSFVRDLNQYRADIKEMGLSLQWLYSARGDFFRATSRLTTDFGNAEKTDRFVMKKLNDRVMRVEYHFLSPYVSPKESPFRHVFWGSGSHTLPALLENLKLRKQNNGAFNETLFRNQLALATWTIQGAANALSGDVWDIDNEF
Briefly: FACS MFI, supernatant. As to the method: as §1

For test [3], the target named is T1, Full length Mouse TfR on CHO cells. The experiment in a line: FACS MFI, supernatant. As for the experimental part: as §1
Test [4] has as its target T3, huTfR Apical Domain-Avi-His (human, biotin on the Avi tag (BirA) where captured on streptavidin).
T3 construct: also called huTfR apical Avi-His; hTfR Apical
T3 chain: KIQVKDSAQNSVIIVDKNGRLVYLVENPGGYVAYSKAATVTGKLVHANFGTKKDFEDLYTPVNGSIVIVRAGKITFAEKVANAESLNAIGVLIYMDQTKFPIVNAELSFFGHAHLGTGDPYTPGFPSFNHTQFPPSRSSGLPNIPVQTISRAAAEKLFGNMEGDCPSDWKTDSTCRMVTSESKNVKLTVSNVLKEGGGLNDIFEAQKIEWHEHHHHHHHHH
Briefly: ELISA OD450, supernatant. As for the experimental part: Hybridoma culture supernatants from 319 hybridomas obtained as described above were screened for their ability to bind Avi-His-tagged huTfR ECD, huTfR apical domain, and muTfR ECD (as described in Example 1) as compared to binding to an irrelevant Avi-His-tagged control protein. Briefly, 96-well polystyrene plates were coated with 5 μg/ml of streptavidin (Thermo Fisher, Cat #PI21125) in coating buffer (0.05M carbonate buffer, pH 9.6, Sigma, Cat #C3041) overnight at 4° C. Coated plates were then blocked with ELISA diluent (PBS+0.5% BSA+0.05% Tween20) for one hour. Blocking buffer was removed and Avi-His-tagged human TfR, human TfR apical domain, mouse TfR and an irrelevant Avi-His-tagged protein were added at 1 μg/ml in ELISA diluent and captured for 1 hour at room temperature. After washing three times with 300 μl of PBST (PBS+0.05% Tween20, Thermo 28352), the hybridoma cell culture supernatants were added (50 μl/well) to each well. After 30 minutes of incubation at room temperature, the plates were washed three times with 300 μl of PBST. Anti-mouse IgG Fc-HRP or anti-rat IgG Fc-HRP (Jackson Immunoresearch, Cat #115-035-071 and 112-036-071, respectively) secondary antibodies were diluted 1:5000 in ELISA diluent, added to each well at 50 μl/well, and incubated for 30 minutes at room temperature with shaking. After a final set of washes (3×300 μl in PBST), 50 μl/well of BioFx TMB substrate (Surmodics, Cat #TMBW-1000-01) was added to the wells. The reaction was then quenched after 5-10 mins with 50 μl/well of 2N sulfuric acid. The plates were read for absorbance at 450 nm on a SpectraMax M5 (Molecular Devices, Sunnyvale, CA) using SoftMax Pro software.

T1 sequence (Q62351 whole entry): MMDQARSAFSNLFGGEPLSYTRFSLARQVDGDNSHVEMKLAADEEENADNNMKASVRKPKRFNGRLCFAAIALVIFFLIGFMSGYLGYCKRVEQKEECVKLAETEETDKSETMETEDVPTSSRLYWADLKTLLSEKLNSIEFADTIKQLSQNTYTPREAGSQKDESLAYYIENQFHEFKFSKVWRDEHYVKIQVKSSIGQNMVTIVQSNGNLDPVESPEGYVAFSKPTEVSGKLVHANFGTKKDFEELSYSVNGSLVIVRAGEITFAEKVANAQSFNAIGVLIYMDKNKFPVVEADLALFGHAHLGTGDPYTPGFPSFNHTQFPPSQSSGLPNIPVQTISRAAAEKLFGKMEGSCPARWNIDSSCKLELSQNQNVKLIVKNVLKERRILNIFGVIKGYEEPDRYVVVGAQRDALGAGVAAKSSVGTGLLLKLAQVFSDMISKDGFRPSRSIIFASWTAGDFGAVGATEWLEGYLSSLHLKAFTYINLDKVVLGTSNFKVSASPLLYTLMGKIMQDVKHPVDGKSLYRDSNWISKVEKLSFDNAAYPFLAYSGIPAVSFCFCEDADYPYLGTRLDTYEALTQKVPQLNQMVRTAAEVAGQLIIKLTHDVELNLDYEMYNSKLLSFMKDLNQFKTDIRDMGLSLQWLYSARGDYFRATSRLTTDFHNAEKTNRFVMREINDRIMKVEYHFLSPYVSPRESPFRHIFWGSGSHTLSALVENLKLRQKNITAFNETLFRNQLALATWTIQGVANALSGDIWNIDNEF

B1: TfR7 (mouse hybridoma antibody) (antibody, V domains shown)
VH: DVQLQESGPGLVKPSQSLSLTCTVTGYSITSDYAWNWLRQFPGNKLEWMGYISYSGYSRHNPSLKSRISITRDTSKNQFFLQLNSVTSEDTATYYCARGDWDFDYWGQGTTLTVSS
VL: DIVMTQSQKFMSTSVGDRVSVTCKASQNVLTNVAWYQQKPGHSPKALIYSSSSRNSGVPDRFTGSGSGTDFTLTISNVQSEDLAEYFCQQYNTYPYTFGGGTKLEIK
notes: mouse IgG in hybridoma supernatant
Regarding B1, the binding result in test [1] is “no binding”. Further, the “fold over parental (CHO WT)” value is 87 fold in test [2] and 1 fold in test [3]. Also, the “ratio over irrelevant protein” value in test [4] was 48 fold.

B2: TfR30 (mouse hybridoma antibody) (antibody, V domains shown)
VH: QVQLQQSGPQLVRPGASVKISCKASGYSFTNYWLHWVKQRPGQGLEWIGMIDPSDSETRLNQKFKDKATLTVDKSSSTAYMQLSSPTSEDSAVYYCARWGGGYYGFAYWGQGTLVTVSA
VL: DIVMTQSQKFMSTSVGDRVSITCKASQNVRTAVAWYQQKPGQSPKALIYLASNRHTGVPDRFTGSGSGTDFTLTISNVQSEDLADYFCLQHWNYPWTFGGGTKLEIK
notes: as for B1
For B2, the “fold over parental (CHO WT)” value was 169 fold in test [2] and 1 fold in test [3]. Moreover, the “ratio over irrelevant protein” value in test [4] is 29 fold.

B3: TfR2 (mouse hybridoma antibody) (antibody, V domains shown)
VH: EVQLQQSGPELVKPGASVKISCKASGYTFTDYNMHWVKQSHGKSLEWIGYIYPYNGGTGYNQKFKSKATLTVDNSSSTAYMELRSLTSEDSAVYYCATLYDGYYFDYWGQGTTLTVSS
VL: DILLTQSPAILSVSPGERVSFSCRASQSIGTSIHWYQQRTNGSPRLLIKYASESISGIPSRFSGSGSGTDFTLSINNVESEDIADYYCQQSNSWPFTFGSGTKLEIK
notes: as for B1
Regarding B3, the binding result in test [1] is on record as “no binding”. The “fold over parental (CHO WT)” value in test [2] is 458 fold; in test [3], 1 fold. Also, in test [4], the “ratio over irrelevant protein” value was 5 fold.

B4: TfR4 (mouse hybridoma antibody) (antibody, V domains shown)
VH: QVQLQQSGAELVRPGTSVKVSCKASGYAFTNYLIEWVKQRPGQGLEWIGVINPGSGGTTYNEKFKGKATLTADKSSSTAYMQLSGLTSDDSAVYFCARRSPYFDYWGQGTTLTVSS
VL: SIVMTQTPKFLLVSAGDRVTITCKASQSVSNDVAWYQQKPGQSPKLLIYYASNRYTGVPDRFTGSGYGTDFTFTISTVQAEDLAVYFCHQDYISPTFGGGTKLEIK
notes: as for B1
As for B4, in test [1], the binding result is “no binding”. For the same molecule, the “fold over parental (CHO WT)” value in test [2] came to 61 fold; in test [3] it was 1 fold. For the same molecule, the “ratio over irrelevant protein” value in test [4] is 42 fold.

B5: TfR18 (mouse hybridoma antibody) (antibody, V domains shown)
VH: QVQLQQSGAELVRPGTSVKVSCKASGYAFTNYLIEWIKQRPGQGLEWIGVINPGNNDTTYNEMFKAKTTLTADKSSNTAYMQLSSLTSDDSAVYFCARRSPYFDYWGQGTTLTVSS
VL: SIVMTQTPKFLLVSAGDRVTITCKASQSVSNDVAWYQQKPGQSPKLLIYYASNRYTGVPDRFTGSGYGTDFTFTISTVQAEDLAVYFCHQDYSSPTFGGGTKLEIK
notes: as for B1
B5: in test [1], the binding result was “no binding”. In addition, the “fold over parental (CHO WT)” value in test [2] came out at 75 fold; in test [3], 1 fold. The “ratio over irrelevant protein” value in test [4] amounted to 32 fold.

B6: TfR8 (mouse hybridoma antibody) (antibody, V domains shown)
VH: QVQLQQSGAELVRPGTSVKVSCKASGYAFTNYLIEWVKQRPGQGLEWIGVINPGSGGTNYNEKFKGKATLTADKSSSTAYMQLSSLTSDDSAVYFCARRSPYFDYWGQGTTLTVSS
VL: SIVMTQTPKFLLVSAGDRVTITCKASQSVSNDVAWYQQKPGQSPKLLIYYASNRYTGVPDRFTGSGYGTDFTFTISTVQAEDLAVYFCHQDYISPTFGGGTKLEIK
notes: as for B1
On to B6, for which the binding result in test [1] was “no binding”. The “fold over parental (CHO WT)” value amounted to 215 fold in test [2] and 1 fold in test [3]. Further, in test [4], the “ratio over irrelevant protein” value came out at 37 fold.

B7: TfR1 (mouse hybridoma antibody) (antibody, V domains shown)
VH: QVQLQQSGPELVKPGASVKMSCKASGYTFTNYYIHWVKQRPGQGLEWIGWIYPGDGSTKYNEKFKGKTTLTADKSSSTAYMLLSSLTSEDSAIYFCARDGSSAPKFTYWGQGTLVTVSA
VL: DIVMTQSPSSLTVTAGEKVTMRCKSSQSLLNSGNQKNYLTWYQQKPGQPPKLLIYWASTRESGVPDRFTGSGSGTDFTLTISSVQAEDLAVYYCQNDYSYPLTFGAGTKLELK
notes: as for B1
For the molecule B7, the binding result in test [1] was “no binding”. Besides, the “fold over parental (CHO WT)” value turned out to be 228 fold in test [2] and 1 fold in test [3]. In addition, the “ratio over irrelevant protein” value in test [4] was found to be 22 fold.

B8: TfR3 (mouse hybridoma antibody) (antibody, V domains shown)
VH: QVQLRQSGPELVKPGASVRISCKASGYTFTSFYIHWVKQRPGQGLEWIGWIYPGDVNTHYSDKFKGKATLTADKSSSTAYMQLSSLTSEDSAVYFCAREGYGYFAYWGQGTLVTVSA
VL: DIVMTQSPSSLTVTAGEKVTMSCKSSQSLLNSGNQKNYLTWYQQKPGQPPKLLIYWASTRESGVPDRFTGVGSGTDFTLTISSVQAEDLAVYYCQNDYSYPLTFGSGTKLELK
notes: as for B1
As to B8, the binding result in test [1] is given as “no binding”. The “fold over parental (CHO WT)” value was 38 fold in test [2] and 1 fold in test [3]. In addition, the “ratio over irrelevant protein” value in test [4] is 37 fold.

B9: TfR5 (mouse hybridoma antibody) (antibody, V domains shown)
VH: QVQLQQSGPELVKPGASVKMSCKASGYTFTNYYIHWVKQRPGQGLEWIGWIYPGDGNTNYNEKFKGKTTLTADKSSSTAYMLLSSLTSEDSAIYFCARDGSSAPKFTYWGQGTLVTVSA
VL: DIVMTQSPSSLTVTAGEKVTMRCKSSQSLLNSGNQKNYLTWYQQKPGQPPKLLFYWASTRESGVPDRFTGSGSGTDFTLTISSVQAEDLAVYYCQNDYSYPLTFGAGTKLELK
notes: as for B1
Take B9: in test [1], the binding result was “no binding”. In addition, the “fold over parental (CHO WT)” value in test [2] turned out to be 561 fold; in test [3], 1 fold. For the same molecule, in test [4], the “ratio over irrelevant protein” value came to 15 fold.

B10: TfR9 (mouse hybridoma antibody) (antibody, V domains shown)
VH: EVQLQQSGPELVKPGASVKISCKTSGYTFTEYAMHWVKQSHGKSLEWIGGINPNDGGTSYNQKFKGKATLTVDKSSSTAYMELRSLTSEDSAVYYCSSQRWLLRGGDYWGQGTTLTVSS
VL: not shown
notes: as for B1
Turning to B10, the binding result in test [1] was “no binding”. For the same molecule, the figures for the “fold over parental (CHO WT)” value in test [2] and in test [3] were 203 fold and 1 fold, respectively. The “ratio over irrelevant protein” value in test [4] worked out at 10 fold.

B11: TfR6 (mouse hybridoma antibody) (antibody, V domains shown)
VH: DVQLVESGGGLVQPGGSRKLSCAASGFTFSSFGMHWVRQAPEKGLEWVAYISSGSSAIYYADTVKGRFTVSRDNPKNTLFLQMTSLRSEDTAIYYCATSYVYDPPWFAYWGQGTLVTVSA
VL: DIVMTQSHKFMSTSVGDRVSITCKASQDVSTAVAWYQQKPGQSPKLLIYWASTRPTGVPDRFTGSGSGTDYTLTISSVQAEDLALYSCQQHFSTPWTFGGGTKLEIK
notes: as for B1
On to B11, for which the binding result in test [1] was “no binding”. The entries for the “fold over parental (CHO WT)” value in test [2] and in test [3] were 451 fold and 1 fold, respectively. For the same molecule, the “ratio over irrelevant protein” value in test [4] was determined as 37 fold.
